Source: patent US9463249B2, “Crystalline insulin-conjugates” (SmartCells, Inc., priority 2009, dated 2016)

Legend:
[1] = system: lectins; assay: Relative lectin binding affinities of saccharide ligands (FIG. 1); details: four sugars shown in FIG. 1
[2] = rat, in vivo, iv
Experimental: To determine the elimination rate in the presence of elevated glucose levels, one hour before the start of the experiment one rat cannula was connected to a syringe infusion pump containing a sterile 50% w/v glucose solution. The pump infusion rate was adjusted by the experimenter to ensure that the blood glucose levels in the animal remained above 300 mg/dL at all times during the experiment. Blood glucose was measured using commercially available test strips (Precision Xtra, Abbott Laboratories, Abbott Park, Ill.). […]
(§1) Throughout the experiment, blood glucose was measured using commercially available test strips (Precision Xtra, Abbott Laboratories, Abbott Park, Ill.). Blood from each timepoint was centrifuged at 4 C to collect the serum, and serum insulin or serum conjugate concentrations were subsequently measured with a commercially available ELISA kit (Iso-Insulin ELISA, Mercodia, Uppsala, Sweden). […]
as §1

[3] = Glucose-responsive PK under constant i.v. infusion with i.p. glucose injection at 240 min; set-up: species or system Sprague-Dawley rats; details: rat, in vivo, iv
Experimental: In this example, the i.v. elimination rate experiment described in Example 30 was modified from a single i.v. bolus of 0.4 mg conjugate/kg body weight to a continuous i.v. infusion.
A blood sample was taken at t=0 min, after which the constant i.v. infusion was initiated.
Throughout the experiments, blood glucose was measured using commercially available test strips (Precision Xtra, Abbott Laboratories, Abbott Park, Ill.). Blood from each timepoint was centrifuged at 4 C to collect the serum, and serum insulin or serum conjugate concentrations were subsequently measured with a commercially available ELISA kit (Iso-Insulin ELISA, Mercodia, Uppsala, Sweden).

Compound	lectin binding affinity relative to the other sugars [1]	effect of sugars on elimination rate, in words [2]	hypoglycemia prior to glucose injection [3]
NCCO[C@H]1O[C@H](CO[C@H]2O[C@H](CO)[C@@H](O)[C@H](O)[C@@H]2O)[C@@H](O)[C@H](O[C@H]2O[C@H](CO)[C@@H](O)[C@H](O)[C@@H]2O)[C@@H]1O [AETM, Man (α-1,3)-Man(α-1.6)-α-1-aminoethylmannopyranoside]	highest affinity of the four sugars shown		
RHI: recombinant human insulin (MW=5808 Da, Sigma Aldrich), unconjugated control		not affected in the presence of sugars	causes significant hypoglycemia prior to glucose injection
